Molecular target: recombinant human tau 2N4R (as used in SPR) (human, UniProt P10636-8 1-441)
Assay: SPR

Kd: 41 ± 9 nM
B1: Recombinant human SORL1 aa 82-753 protein (domain or fragment, UniProt Q92673 82-753, looked up)
chain: SAALQPEPIKVYGQVSLNDSHNQMVVHWAGEKSNVIVALARDSLALARPKSSDVYVSYDYGKSFKKISDKLNFGLGNRSEAVIAQFYHSPADNKRYIFADAYAQYLWITFDFCNTLQGFSIPFRAADLLLHSKASNLLLGFDRSHPNKQLWKSDDFGQTWIMIQEHVKSFSWGIDPYDKPNTIYIERHEPSGYSTVFRSTDFFQSRENQEVILEEVRDFQLRDKYMFATKVVHLLGSEQQSSVQLWVSFGRKPMRAAQFVTRHPINEYYIADASEDQVFVCVSHSNNRTNLYISEAEGLKFSLSLENVLYYSPGGAGSDTLVRYFANEPFADFHRVEGLQGVYIATLINGSMNEENMRSVITFDKGGTWEFLQAPAFTGYGEKINCELSQGCSLHLAQRLSQLLNLQLRRMPILSKESAPGLIIATGSVGKNLASKTNVYISSSAGARWREALPGPHYYTWGDHGGIITAIAQGMETNELKYSTNEGETWKTFIFSEKPVFVYGLLTEPGEKSTVFTIFGSNKENVHSWLILQVNATDALGVPCTENDYKLWSPSDERGNECLLGHKTVFKRRTPHATCFNGEDFDRPVVVSNCSCTREDYECDFGFKMSEDLSLEVCVPDPEFSGKSYSPPVPCPVGSTYRRTRGYRKISGDTCSGGDVEARLEGELVPCP

— doi:10.1101/2020.11.17.386581 (bioRxiv, 2020)
